# Experimental data from patent US20250064910A1 (CHILDREN S MEDICAL CENTER, published 2025).
# Target: T1, IpgC (UniProt P0A2U4 1-155, limits assumed)
# T1 construct: Co-expressed with Rhavi-IpaB in E. coli from pETDuet; also called chaperone IpgC
# Assay: co-expression in E. coli; chaperone retained with the His-tagged fusion on Ni-NTA until the detergent wash
# Method: DNA fragments encoding of His-SseB and SseA or His-IpaB and IpgC were synthesized and cloned into a pETDuet vector containing Rhavi by restriction enzyme digestion and ligation. Sequence-confirmed plasmids were transformed E. coli T7 shuffle express cells and transformants containing the relevant cloned proteins were grown to OD600=1 at 25° C., and protein expression was induced with 0.2 mM IPTG at 16° C. overnight. Cells were spun down and pellets were resuspended in lysis buffer (20 mM Tris-HCl, 500 mM NaCl, pH8.0) and then lysed by sonication. Supernatant was loaded over a Ni-NTA column and SseA or IpgC was washed off column with 0.05% LDAO in lysis buffer; proteins Rhavi-SseB and Rhavi-IpaB were eluted in imidazole buffer. Protein-containing elutions were combined, purified over a gel-filtration column for dimer fractions.
# T1 sequence (P0A2U4 whole entry): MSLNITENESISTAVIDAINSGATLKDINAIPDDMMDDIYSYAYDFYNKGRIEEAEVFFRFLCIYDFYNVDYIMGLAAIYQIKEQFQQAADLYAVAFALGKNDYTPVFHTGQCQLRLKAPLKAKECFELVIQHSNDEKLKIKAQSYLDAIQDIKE
binder,measurement,value
"Rhavi-IpaB (rhizavidin fused to Shigella IpaB) (other, also called IpaB fused to rhizavidin; Rhavi-IpaB carrier protein) FDASNFKDFSSIASASSSWQNQSGSTMIIQVDSFGNVSGQYVNRAQGTGCQNSPYPLTGRVNGTFIAFSVGWNNSTENCNSATGWTGYAQVNGNNTEIVTSWNLAYEGGSGPAIEQGQDTFQYVPTTENKSLLKDGGGSSHNVSTTTTGFPLAKILASTELGDNTIQAANDAANKLFSLTIADLTANQNINTTNAHSTSNILIPELKAPKSLNASSQLTLLIGNLIQILGEKSLTALTNKITAWKSQQQARQQKNLEFSDKINTLLSETEGLTRDYEKQINKLKNADSKIKDLENKINQIQTRLSELDPESPEKKKLSREEIQLTIKKDAAVKDRTLIEQKTLSIHSKLTDKSMQLEKEIDSFSAFSNTASAEQLSTQQKSLTGLASVTQLMATFIQLVGKNNEESLKNDLALFQSLQESRKTEMERKSDEYAAEVRKAEELNRVMGCVGKILGALLTIVSVVAAAFSGGASLALAAVGLALMVTDAIVQAATGNSFMEQALNPIMKAVIEPLIKLLSDAFTKMLEGLGVDSKKAKMIGSILGAIAGALVLVAAVVLVATVGKQAAAKLAENIGKIIGKTLTDLIPKFLKNFSSQLDDLITNAVARLNKFLGAAGDEVISKQIISTHLNQAVLLGESVNSATQAGGSVASAVFQNSASTNLADLTLSKYQVEQLSKYISEAIEKFGQLQEVIADLLASMSNSQANRTDVAKAILQQTTA",binding result,binds
